Experimental data: patent US20060123518A1, “Methods for culturing cereal endosperm” (Pioneer Hi-Bred International, Inc., priority 2004, published 2006)

Test system: aleurone cell development
Assay: Chemical genetics with in vitro cultured endosperm expressing Ltp2-driven ZsYellow in aleurone cells
Type: cell-based, maize
Settings: in vitro endosperm cultures in liquid proliferation medium, 96 well plates; predicted result
Method: In vitro cultured endosperm produced by the methods of the present invention and that express the ZsYellow fluorescent protein in aleurone cells under the control of the Ltp2 promoter are plated in 96 well microtiter plates with one endosperm added per well in liquid proliferation medium. To each well, a candidate chemical to be evaluated is added. The effect of the chemical on aleurone cell development is evaluated, for example, as the loss of aleurone cell identity as detected as lack of yellow fluorescence, either on the whole surface of the in vitro cultured endosperm or in patches on the surface. For example, a chemical genetics approach can be used to assess the function of the Dek1 gene product. The defective kernel 1 (dek1) gene is required for aleurone cell development in the endosperm of maize grains and this gene encodes a membrane protein of the calpain gene superfamily (Lid et al. (2002) Proc. Natl. Acad. Sci. USA. 99(8):5460-5465). Using mutant sector analysis, it has been shown that, if an aleurone cell looses the Dek1 gene function, the cell loses its aleurone cell identity and converts to a starchy endosperm cell fate (Becraft et al. (2000) Development 127:4039-4048). n this example, in vitro endosperm cultures are exposed to the calpain inhibitor calpastatin by the method described above.

B1: calpastatin (protein, UniProt P20810 1-708, looked up)
Calpastatin: MNPTETKAIPVSQQMEGPHLPNKKKHKKQAVKTEPEKKSQSTKLSVVHEKKSQEGKPKEHTEPKSLPKQASDTGSNDAHNKKAVSRSAEQQPSEKSTEPKTKPQDMISAGGESVAGITAISGKPGDKKKEKKSLTPAVPVESKPDKPSGKSGMDAALDDLIDTLGGPEETEEENTTYTGPEVSDPMSSTYIEELGKREVTIPPKYRELLAKKEGITGPPADSSKPIGPDDAIDALSSDFTCGSPTAAGKKTEKEESTEVLKAQSAGTVRSAAPPQEKKRKVEKDTMSDQALEALSASLGTRQAEPELDLRSIKEVDEAKAKEEKLEKCGEDDETIPSEYRLKPATDKDGKPLLPEPEEKPKPRSESELIDELSEDFDRSECKEKPSKPTEKTEESKAAAPAPVSEAVCRTSMCSIQSAPPEPATLKGTVPDDAVEALADSLGKKEADPEDGKPVMDKVKEKAKEEDREKLGEKEETIPPDYRLEEVKDKDGKPLLPKESKEQLPPMSEDFLLDALSEDFSGPQNASSLKFEDAKLAAAISEVVSQTPASTTQAGAPPRDTSQSDKDLDDALDKLSDSLGQRQPDPDENKPMEDKVKEKAKAEHRDKLGERDDTIPPEYRHLLDDNGQDKPVKPPTKKSEDSKKPADDQDPIDALSGDLDSCPSTTETSQNTAKDKCKKAASSSKAPKNGGKAKDSAKTTEETSKPKDD
Q: How did the “effect on aleurone cell identity (yellow fluorescence on endosperm surface)” value turn out when B1 was run?
A: lack of fluorescence in spot on the surface
